Columns and labels:
[1] = target: αvβ3 integrin (human) (UniProt P06756); experiment: competition ELISA, displacement of biotinylated vitronectin (10 nM) from immobilized αvβ3 (FIG. 4A)
[2] = target: αvβ3 integrin (human) (UniProt P06756); experiment: competition ELISA, displacement of biotinylated fibrinogen (6 nM) from immobilized αvβ3 (FIG. 4B)

Substance: αvβ3-specific monoclonal antibody LM609
- IC50 [1]: 2.7 nM
- IC50 [2]: 6.3 nM

— US20020150536A1
